Results from article PMC9464592 (Nature, 2022).

Assays:
Test in all cases: cryo-EM structure
tag-free WDR24 = target: T1, tag-free WDR24 (human, UniProt Q96S15 1-790)
T1 sequence: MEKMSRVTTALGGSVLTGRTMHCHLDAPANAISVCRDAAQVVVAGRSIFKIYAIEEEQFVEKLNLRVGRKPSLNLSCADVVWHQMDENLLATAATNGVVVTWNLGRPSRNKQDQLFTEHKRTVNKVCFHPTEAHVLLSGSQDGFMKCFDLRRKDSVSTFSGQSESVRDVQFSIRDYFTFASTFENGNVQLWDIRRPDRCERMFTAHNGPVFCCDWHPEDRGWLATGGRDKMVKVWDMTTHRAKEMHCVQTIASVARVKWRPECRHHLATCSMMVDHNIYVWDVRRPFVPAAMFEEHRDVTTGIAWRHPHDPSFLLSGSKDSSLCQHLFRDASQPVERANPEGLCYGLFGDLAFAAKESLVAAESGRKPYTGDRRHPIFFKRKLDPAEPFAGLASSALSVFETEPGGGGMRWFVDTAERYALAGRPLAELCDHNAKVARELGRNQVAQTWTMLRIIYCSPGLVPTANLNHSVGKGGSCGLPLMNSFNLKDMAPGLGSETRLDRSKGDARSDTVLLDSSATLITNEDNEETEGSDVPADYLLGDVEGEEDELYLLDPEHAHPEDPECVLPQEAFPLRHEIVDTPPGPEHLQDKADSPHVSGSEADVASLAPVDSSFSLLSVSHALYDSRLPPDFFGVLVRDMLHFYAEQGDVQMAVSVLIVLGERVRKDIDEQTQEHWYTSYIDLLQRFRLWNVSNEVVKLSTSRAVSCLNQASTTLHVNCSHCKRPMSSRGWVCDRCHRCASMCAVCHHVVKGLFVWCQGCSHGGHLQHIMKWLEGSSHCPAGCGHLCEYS

tag-free WDR59 = target: T2, tag-free WDR59 (human, UniProt Q6PJI9 1-974)
T2 sequence: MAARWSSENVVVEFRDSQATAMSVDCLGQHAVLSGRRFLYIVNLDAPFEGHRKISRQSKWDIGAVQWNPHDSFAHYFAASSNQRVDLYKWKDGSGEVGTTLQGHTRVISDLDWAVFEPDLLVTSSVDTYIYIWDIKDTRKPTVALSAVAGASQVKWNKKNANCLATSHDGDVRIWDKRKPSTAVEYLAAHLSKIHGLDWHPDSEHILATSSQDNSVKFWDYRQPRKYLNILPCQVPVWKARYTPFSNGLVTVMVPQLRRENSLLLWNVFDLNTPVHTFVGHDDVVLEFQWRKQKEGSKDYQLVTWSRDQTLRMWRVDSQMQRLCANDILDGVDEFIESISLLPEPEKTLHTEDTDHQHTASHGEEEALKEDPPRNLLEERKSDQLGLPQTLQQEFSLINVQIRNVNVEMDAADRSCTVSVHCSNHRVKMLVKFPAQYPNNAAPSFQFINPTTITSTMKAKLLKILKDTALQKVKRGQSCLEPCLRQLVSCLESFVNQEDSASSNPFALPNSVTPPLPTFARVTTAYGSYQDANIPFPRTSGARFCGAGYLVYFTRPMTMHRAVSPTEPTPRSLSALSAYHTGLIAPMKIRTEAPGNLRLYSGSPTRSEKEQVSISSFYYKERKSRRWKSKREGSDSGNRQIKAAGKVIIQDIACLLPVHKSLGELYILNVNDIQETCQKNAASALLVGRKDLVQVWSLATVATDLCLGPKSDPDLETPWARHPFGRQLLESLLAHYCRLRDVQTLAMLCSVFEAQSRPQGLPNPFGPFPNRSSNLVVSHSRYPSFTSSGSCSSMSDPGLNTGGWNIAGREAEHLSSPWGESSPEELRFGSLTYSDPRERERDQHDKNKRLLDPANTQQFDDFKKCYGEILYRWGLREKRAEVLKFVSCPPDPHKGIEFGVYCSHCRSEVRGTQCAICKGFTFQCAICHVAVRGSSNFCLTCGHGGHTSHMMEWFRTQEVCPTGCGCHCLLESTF

[1] = target: T3, N-terminally Flag-tagged MIOS (human, UniProt Q9NXC5 1-875)
T3 sequence: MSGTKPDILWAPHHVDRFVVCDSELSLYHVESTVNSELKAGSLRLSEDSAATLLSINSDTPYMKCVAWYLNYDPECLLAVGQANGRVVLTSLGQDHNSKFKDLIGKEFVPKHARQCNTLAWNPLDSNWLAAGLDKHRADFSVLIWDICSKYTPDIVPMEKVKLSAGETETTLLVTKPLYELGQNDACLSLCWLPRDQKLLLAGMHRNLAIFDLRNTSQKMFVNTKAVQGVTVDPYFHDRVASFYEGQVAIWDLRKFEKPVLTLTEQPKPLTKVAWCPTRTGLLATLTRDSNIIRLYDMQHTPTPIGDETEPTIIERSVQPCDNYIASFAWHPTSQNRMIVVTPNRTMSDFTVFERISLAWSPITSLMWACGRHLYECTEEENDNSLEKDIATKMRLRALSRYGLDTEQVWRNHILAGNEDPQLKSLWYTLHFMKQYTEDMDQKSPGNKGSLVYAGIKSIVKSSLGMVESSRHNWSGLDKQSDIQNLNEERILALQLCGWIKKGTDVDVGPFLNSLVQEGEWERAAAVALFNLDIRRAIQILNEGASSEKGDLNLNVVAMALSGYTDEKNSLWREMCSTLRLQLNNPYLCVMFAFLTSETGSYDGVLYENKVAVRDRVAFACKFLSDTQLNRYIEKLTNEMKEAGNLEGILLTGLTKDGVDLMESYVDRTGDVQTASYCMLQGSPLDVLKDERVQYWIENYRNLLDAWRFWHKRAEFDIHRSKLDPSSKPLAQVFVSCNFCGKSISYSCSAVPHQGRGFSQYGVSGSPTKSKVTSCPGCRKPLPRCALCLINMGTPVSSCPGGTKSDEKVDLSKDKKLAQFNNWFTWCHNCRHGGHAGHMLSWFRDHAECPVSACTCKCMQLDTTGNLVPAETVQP

Measured: binding result

B1: tag-free SEC13 (natural protein, human)
chain: MVSVINTVDTSHEDMIHDAQMDYYGTRLATCSSDRSVKIFDVRNGGQILIADLRGHEGPVWQVAWAHPMYGNILASCSYDRKVIIWREENGTWEKSHEHAGHDSSVNSVCWAPHDYGLILACGSSDGAISLLTYTGEGQWEVKKINNAHTIGCNAVSWAPAVVPGSLIDHPSGQKPNYIKRFASGGCDNLIKLWKEEEDGQWKEEQKLEAHSDWVRDVAWAPSIGLPTSTIASCSQDGRVFIWTCDDASSNTWSPKLLHKFNDVVWHVSWSITANILAVSGGDNKVTLWKESVDGQWVCISDVNKGQGSVSASVTEGQQNEQ
binds: all assays above
